Patent publication US20190316211A1, “ONCOGENIC ALTERNATIVE SPLICING SWITCH OF PACE4 IN CANCER” (SOCIETE DE COMMERCIALISATION DES PRODUITS DE LA RECHERCHE …, priority 2016, published 2019)

Columns and labels:
recombinant PACE4 = molecular target: T1, recombinant PACE4 (Homo sapiens, UniProt P29122); assay: GDF-15 spanning peptide cleavage monitored by HPLC; type: biochemical; settings: 37° C., 1 h, pH 7.5
T1 construct: made in house; host or cells: S2 cells
T1 sequence (P29122 150-969): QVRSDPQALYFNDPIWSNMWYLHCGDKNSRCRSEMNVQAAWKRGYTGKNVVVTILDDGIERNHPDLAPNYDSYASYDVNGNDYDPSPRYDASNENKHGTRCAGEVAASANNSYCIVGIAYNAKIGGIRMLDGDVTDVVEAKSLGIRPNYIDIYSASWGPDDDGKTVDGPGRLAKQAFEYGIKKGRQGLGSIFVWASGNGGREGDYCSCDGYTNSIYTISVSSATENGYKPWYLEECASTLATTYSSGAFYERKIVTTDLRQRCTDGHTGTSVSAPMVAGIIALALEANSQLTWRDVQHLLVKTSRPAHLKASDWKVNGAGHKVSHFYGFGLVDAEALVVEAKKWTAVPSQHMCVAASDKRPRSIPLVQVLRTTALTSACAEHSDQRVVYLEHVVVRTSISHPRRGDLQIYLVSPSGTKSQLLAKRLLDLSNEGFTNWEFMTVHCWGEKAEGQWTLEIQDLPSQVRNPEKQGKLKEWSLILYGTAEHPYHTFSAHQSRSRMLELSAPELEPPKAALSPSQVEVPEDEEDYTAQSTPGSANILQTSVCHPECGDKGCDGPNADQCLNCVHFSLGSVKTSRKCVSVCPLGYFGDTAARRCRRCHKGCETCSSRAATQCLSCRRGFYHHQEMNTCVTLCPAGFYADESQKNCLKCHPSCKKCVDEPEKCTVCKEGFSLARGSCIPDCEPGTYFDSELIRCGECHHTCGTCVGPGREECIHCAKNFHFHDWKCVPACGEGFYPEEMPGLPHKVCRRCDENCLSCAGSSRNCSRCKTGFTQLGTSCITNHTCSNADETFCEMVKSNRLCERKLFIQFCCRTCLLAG
Source text: (§1) GDF-15 is known to supports both the proliferation and clonogenic potential of LNCaP cells, which is also in line with the observed phenotypes for both PACE4 knockdown and overexpressing cells. This protein is synthetized as a 35 kDa proprotein which requires a PC-based cleavage at the […]^196↓, site to generate a ˜17 kDa C-terminal mature form that associates as a disulfide-linked dimer further secreted in the medium. GDF-15 is only detected in LNCaP cells whereas DU145 express very low levels in both medium and cell lysates (FIGS. 10C and D). […]
(§2) GDF-15 peptide (40 μg) was incubated at 37° C. with recombinant PACE4 or soluble furin (16U) in 100 mM Hepes buffer containing 1 mM CaCl2, 1 mM 3-mercaptoethanol, and 1.8 mg/mL BSA, pH 7.5 (total sample volume: 300 μl) over a period of 1 h. […] After incubation, the reactions were immediately analyzed by the analytical HPLC (Agilent Technologies, 1100 series with a diode array detector and a fraction collector; injection volume: 95 μl, gradient: 2 to 25% […] in 50 min; [A]0.1% aq TFA and [B] acetonitrile+0.1% aq TFA; column: an Agilent Eclipse XDB C18 column (5 μm, 4.6×250 mm). The collected fractions were analysed by SELDI-TOF mass spectrometer (Bio-Rad Laboratories) to identify the cleavage product.

soluble furin = molecular target: T2, soluble furin (Homo sapiens, UniProt P09958); assay: GDF-15 spanning peptide cleavage monitored by HPLC; type: biochemical; settings: 37° C., 1 h, pH 7.5
T2 construct: recombinant PACE4 or soluble furin (16U); made in house; host or cells: S2 cells (said of recombinant PCs in general)
Source text: as §1, §2

T2 sequence (P09958 108-715 limits assumed): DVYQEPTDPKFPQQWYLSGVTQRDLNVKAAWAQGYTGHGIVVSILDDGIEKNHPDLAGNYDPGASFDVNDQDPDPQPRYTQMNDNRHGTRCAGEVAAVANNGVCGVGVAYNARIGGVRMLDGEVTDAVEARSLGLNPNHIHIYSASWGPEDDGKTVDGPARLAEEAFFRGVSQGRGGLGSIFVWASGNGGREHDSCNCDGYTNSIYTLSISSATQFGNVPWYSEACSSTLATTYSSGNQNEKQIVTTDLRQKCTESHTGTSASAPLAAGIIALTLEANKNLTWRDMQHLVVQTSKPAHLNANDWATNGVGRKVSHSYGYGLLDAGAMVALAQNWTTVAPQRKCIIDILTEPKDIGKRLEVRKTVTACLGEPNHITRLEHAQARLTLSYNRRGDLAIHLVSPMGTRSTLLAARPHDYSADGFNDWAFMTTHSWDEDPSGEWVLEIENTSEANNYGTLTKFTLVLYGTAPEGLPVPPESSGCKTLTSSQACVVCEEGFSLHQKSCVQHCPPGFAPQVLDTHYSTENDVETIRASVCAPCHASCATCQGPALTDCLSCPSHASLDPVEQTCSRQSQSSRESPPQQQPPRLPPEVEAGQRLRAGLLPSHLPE

- cleavage of peptide at the QAARGRRRAR site (recombinant PACE4): cleaved by both PCs
- cleavage of peptide at the QAARGRRRAR site (soluble furin): cleaved by both PCs
Sequence: QAARGRRRARARNG (Ac-QAARGRRRARARNG-NH2) [synthetic N-acetylated peptide spanning the GDF-15 cleavage site]
